Results reported in the DeepSol protein solubility set.

test: soluble on expression in E. coli; label from the status in PepcDB or PDB records

Sequence | soluble on expression in E. coli
MDLADLMEVENGDHSINQKHVQITFFSKDEEIPQIPDAVFDVPTGAECDDMNLLLNKTIEANDGAWKERRFEFLVGETFLRTSLAEFIEEYEVETETILKVECVIGIEAPKPLHDIQAPDWVSSVQIANGHIFSTTYGGDIVIVDRKGKETKLAVNSANRLLKCISIVKAPSKKNQLDGTEFVVGGENQLLTLYAIEKGALVEKLILRGHERAVECVSVNSDSTRAISGSVDTNLKIWNLDASDEATTYEKEEEEESAKKRRKKETKTKVPMVTIGGHRDKVSAVEWCPWNSGHAFSCSWDHTIVEWDLELAGEISRIKGPKSFTSIDLHPKSDLLISSCTDAIPRLYDPKNRDGSMVKQSFIGHQNGWVEAVKWNPLDTNQFVSVSTDKTAKMWDVRSSKSSLFDIHGHDDRILCATWNEGLIATGSADCTIKIFETA | not soluble
MGSDKIHHHHHHMNFDFDLPAKALFRAMPICRENTRFNIDGVLIDPDPNGGAWLVATDGKGMLVQYDPDTKVPEKCVVKVSAAWLTETRFDYDMSLIGDLNDIHWCDTRLEFSKDTMTAMSSDFDIAHCLAEAGPDVFCQIRYNPISFPDWRKALDTSANTSELARPVERQTALDTGYLTDLIGWSRGFQVNPAPAGHARLISFVGEPNTFAVLMPMVADATDPLPPLLERAGRADLIQGPQRAAE | not soluble
MKKTKFSSYEEYRNYFKRLIDLERRAQTELHLKEIKTLSGKEREKRGRAILNLRAKFLGRGLGGVYLVRYSRPQGLPKTEISTGDIVLVSKGKPTVKEVQGTVAEKTNYYLVVAFRDKPPPYALGKDVRIDLFSNEITFKRMEEALKNFKEHPLRDFILGKKVLEHHHHHH | soluble
MPHSYPALSAEQKKELSDIALRIVAPGKGILAADESVGSMAKRLSQIGVENTEENRRLYRQVLFSADDRVKKCIGGVIFFHETLYQKDDNGVPFVRTIQDKGIVVGIKVDKGVVPLAGTDGETTTQGLDGLSERCAQYKKDGADFAKWRCVLKISERTPSALAILENANVLARYASICQQNGIVPIVEPEILPDGDHDLKRCQYVTEKVLAAVYKALSDHHVYLEGTLLKPNMVTPGHACPIKYTPEEIAMATVTALRRTVPPAVPGVTFLSGGQSEEEASFNLNAINRCPLPRPWALTFSYGRALQASALNAWRGQRDNAGAATEEFIKRAEVNGLAAQGKYEGSGEDGGAAAQSLYIANHAYL | soluble
MADDDDRVDISNETLASLVGRPMSSSGNRIRATPSRRRLVSAPTNPRWSPSADDRRLFSYVSSMRSDSNSSSKSPSPPSAKMSKRPNGPYSVRKYQPRGSPPSDGSDKIHRFGESPTPGGVGGVFGTELDDLIIDELMGMEDDQRMRPGATRPMTIGGEKTMSMARPIPGASSRAGSGHSGSPITIPNAMSNNFRQVVSSSAPTSSIDIEKMIGAVSNGGGNSGGDNDPEDYYRDRRKKDIHNMIERRRRYNINDRIKELGQMLPKNTSEDMKLNKGTILKASCDYIRVLQKDREQAMKTQQQQKSLESTAHKYADRVKELEEMLARQGVQVPPSHLPPIPKVIERPIKQEIDESPPNHTPTGSFVSSSGFLSEVTNNTAAMQITSPNDSRPNNFMNNSAPSDSFFSVGSASPPDYRTSSGTASWKLPGSNAFSDLMMDDLNPMMNGDPLISSAGAHPSPHFHSSQMSPDIHWDASGFSPDPINTQQSNSGHYHMDFS | not soluble
RVESLMTHRSDIIALDLDDPVDENLKKMIASGRSNFPVYERDLDDVIGIVSVKDVLAKLVESGKVDIRASVTKPLFAPEAITILKLLESFKETGMHIALITDEYGSVQGIITLHDILEAIVGDVRSLGEPEEEQI | not soluble
MRVLVTGGAGFIGSSFVRYIVNTTDWEVLVYDKLTYAGRLENLHDVIDRIGFMRGDIADEEQFGRVLTEFEPDVVVNFAAETHVDRSINEPAPFMRTNIIGVFTILEAIRKRIDQIVLLHVSTDEVYGDLWNTGKEATESDPLNPSSPYSASKASGDLLIKAYGRTYGLKYRIVRPCNNYGPYQHVEKLIPRTIIRILHGKPPVIYGDGSQIRDWLYVEDTARAIHVVLEKGVDGEIYNVCGGMASTVKDIVVNILESMGKPRDYLVYGKSRPGEDRRYAMKCDKIRNLGWAPHVTLKEGLKITVKWYIENRWWWRPLLDKRYVLADHPW | soluble
MSMIHKFSMNGYNIVLDVNGGAVHVLDDVAYDLLDFYKEKSKEEILEILKSKYQEEKINEAYEEILNLEKEGLLYTEDTYQYHPSFVHREPVVKALCLNVAHDCNLKCKYCFAAQGDFGGEKELMSFEVGKAAIDYLIANSGSRKNLEIDFFGGEPLMNFEVVKQLVDYGRSVEKDYNKNIRFTITTNGVLLNDEIIDYINENMHNVVLSLDGRKEVNDNMRPTLNDKGSYDITLPRFKKLVEKRSKDKYYYIRGTFTRDNLDFSKDVMHFADLGFKLTSVEPVVGDESNPYALREEDLPKIFEEYEKFAVEYADRQLQGDGFKFFHFMIDLNQGPCVIKRITGCGAGNEYLSVTPNGDIYPCHQFVGNEEFKMANIFDEEIVLPENLKNMFREAHVYTKEECKQCWNKFYCSGGCHANAINFNSDISKPYELGCEMQRKRTECSIMIQAKLMLEGATN | not soluble
MGSDKIHHHHHHMAKQKDGFLGEQALVLPPAIVQRMKTDPATSILYITDIGYYPKAYNHFRERETPIDQYVFIYCTEGRGWFSLDGQKHPVVPNQYFILPAGLPHAYGADEKEPWTIYWIHFGGTLAPLYCTHRTCRLTDIKPGMHSRISYRTELFEEIFRVLKMGYSLENLSYASSVFHHYLGSLRYLREYREAFSEHRPAGEEDPVNAAIHYMKENLGKKLTLAELADYTGYSSSYFSNLFLKRTGYAPLSYFNQIKIQKACQFLDFTDMKVNQVCYRVGIEDAYYFSRLFSQIMGMSPREYKKVKKG | not soluble
MGSDKIHHHHHHMTPVLSLDMEDPIRFIDENGSFEVVKVGHNLAIHGKKIFDELAKRNLKIILDLKFCDIPSTVERSIKSWDHPAIIGFTVHSCAGYESVERALSATDKHVFVVVKLTSMEGSLEDYMDRIEKLNKLGCDFVLPGPWAKALREKIKGKILVPGIRMEVKADDQKDVVTLEEMKGIANFAVLGREIYLSENPREKIKRIKEMRL | soluble
QVQLVESGGGTVPAGGSLRLSCAASGNTLCTYDMSWYRRAPGKGRDFVSGIDNDGTTTYVDSVAGRFTISQGNAKNTAYLQMDSLKPDDTAMYYCKPSLRYGLPGCPIIPWGQGTQVTVSS | soluble
MALKLPIPHNILILNRNSALELLRALKEVPKLIITRIPPDEWPDVAYTEYIWLSRVEGPNSVSPTALHVIIERAKTFLDENSGGVIYVDGIEYIMLYEEFKSVAKFLLTLKDIAVVKEGHLILHVDPKTLEDHQMAVLEREFVKINVEETIEKIRGPTLFGALIEEKGLEHHHHHH | soluble
MKCVEVHVIDSSAIFQRKAVYRNMVTVPEVVAEILDEASALYFSVKNFRVEEASPESVEEVKEAARKTGDIHKLSDTDIKVLAKALDEIKKGNEVVLVTDDYAIQNVAMSLGIRFDGILHRQISKEFKWVKVCRGCGRRIESEICPVCGSEAIIRRVKNDKNRNSG | not soluble
MSLGYDVIFVSGVAKARFRRRMRKLVLCITALLLSGCSREFIEKIYDVDYEPTNRFAKNLAELPGQFQKDTAALDALINSFSGNIEKRWGRRELKIAGKNNYVKYIDNYLSRSEVNFTEGRIIVETVSPIDPKAHLRNAIITTLLTPDDPAHVDLFSSKDIELKGQPFLYQQVLDQDGQPIQWSWRANRYADYLIANHLKVKQVDFKKAYYVEIPMVKDQIDIRGYKYASIVRKASRKYDIPEDLIYAIIKTESSFNPYAVSWANAYGLMQVVPKTAGRDVFKLVKNRSGEPSPEYLFNPENNIDTGTAYFYILKNRYLKEVRHPTSLEYSMISAYNGGTGGVLSTFSSDRQRAMRDLNALQPNQVYWALTKKHPNAEARRYLEKVTKFKKEFNAGEGHHHHHH | not soluble
MKMKLTAAIIAAFVIIMGCAGGPKASKADELDLAIRDTSDYLNDNIPKGNKIIILNIQSDYASLSDYIIDELIANAVNDKIFKVVDRAQLEQIRAELNFQWSGEVDDKSALEIGKFLGAQTIVTGAISQLADRHRMRIRALNVKTAEVQGQYNRNITTSPMITALMKGGKSTNTSYGGKTRSGNSSGTTGGTSGAKTSQPATPEYKIGDTGPAGGLIFYDKKNNRNGWRYLEAAPANTERETFMSGDSPYSLGNKNLVGDGFENTQNMMKSIEKKGGGIGSAPYYCTNLVVNGFNDWYLPSFDEISLMYTNLHANNLGSFKQRDYWHSSEHGVVWGTYSFAKGEKGQHSYAYDNDKRLTRACRRF | not soluble
MSAQDFLVELGTEELPPKALASLGDAFLAGIEKGLQAAGLNYTGKQVYAAPRRLAVLIRQLDVQQPDRSINIDGPPLQAAFNAEGEPTQAALGFAKKCGVELAEIDQSGPKLRFSQHIPGKATVGLLPTIVEDSLNDLPIPKRMRWAASREEFVRPTQWLVMLLGDQVVDCTILSQKAGRESRGHRFHHPENVLITTPANYVEDLRKAYVLADFAERRELISKRTAELAMQQEGTAIVPPALLDEVTALVEWPVPLVCSFEERFLEVPQEALITTMQDNQKYFCLLDSEGKLLPRFITVANVESRDPKQIVQGNEKVVRPRLTDAEFFFKQDKKQPLETFNERLKNVVFQAQLGTVYDKAERVSRLAAFIAPLIGGDAQRAGRAGLLSKCDLATEMVGEFPEMQGVAGYYYALNDGEPEDVALALNEQYMPRGAGAELPQTLTGAAVAIADKLDTLVGIFGIGMLPTGSKDPYALRRAALGVLRILIEKQLDLDLTGAVEFAVKQFGAKIKAPGLAEQVLEFIFDRLRARYEDEGIDVATYLSVRALQ | not soluble
SNSALYNVDAGHRAVIFDRFRGVQDIVVGEGTHFLIPWVQKPIIFDCRSRPRNVPVITGSKDLQNVNITLRILFRPVASQLPRIYTSIGEDYDERVLPSITTEILKSVVARFDAGELITQRELVSRQVSDDLTERAATFGLILDDVSLTHLTFGKEFTEAVEAKQVAQQEAERARFVVEKAEQQKKAAIISAEGDSKAAELIANSLATAGDGLIELRKLEAAEDIAYQLSRSRNITYLPAGQSVLLQLPQ | soluble
MAVMSYIDAITLAMREEMERDEKVFVLGEDVGKKGGVFKATHGLYDQFGEDRALDTPLAESAIAGVAIGAAMYGMRPIAEMQFADFIMPAVNQIVSEAAKIRYRSNNDWTCPITVRAPFGGGVHGALYHSQSVEAMFANQPGLKIVIPSTPYDAKGLLKAAIRDEDPVLFFEHKRAYRLIKGEVPEDDYVLPIGKADVKREGDDITVITYGLCVHFALQAAEKLAQDGISAHILDLRTVYPLDKEAIIEAASKTGKVLLVTEDNKEGSIMSEVAAIIAENCLFDLDAPIARLAGPDVPAMPYAPTMEKFFMVNPDKVEKAMRELAEF | not soluble
MSLSIKLVAIDIDGTLLNSQHKITPRVKEALQKANEQGVRIVLCTGRPLPGVKEQLDELALYGENDFVITYNGSLVQATKDNTIISRYTLSYEDFLEIEMYSRKVGAHLHTIDDSAIYTANRNIGKYTIHEASLVNMPLKYRTVDEMTPEMNIIKMMMIDEPEVLDPAIAKLPLHFTEKYTTVKSTPFYYEIMNKNASKGNALAKLADHLGLNKDEVMAIGDNENDLSMIDYAGIGVAMGNATENVKTIADVHTTSNDEDGVAQIIEKMVLIEGHHHHHH | soluble
MMKKKWYIVLTMSGYEEKVKENIEKKVEATGIKNLVGRIVIPEEVVLDATSPSERLILSPKAKLHVNNGKDVNKGDLIAEEPPIYARRSGVIVDVKNVRKIVVETIDRKYTKTYYIPESAGIEPGLRVGTKVKQGLPLSKNEEYICELDGKIVEIERMKKVVVQTPDGEQDVYYIPLDVFDRDRIKKGKEVKQGEMLAEARKFFAKVSGRVEVVDYSTRKEIRIYKTKRRKLFPGYVFVEMIMNDEAYNFVRSVPYVMGFVSSGGQPVPVKDREMRPILRLAGLEEYEEKKKPVKVELGFKVGDMVKIISGPFEDFAGVIKEIDPERQELKVNVTIFGRETPVVLHVSEVEKIE | soluble
